{"source": "paper PMC8284805", "about": "“Mechanism underlying the DNA-binding preferences of the Vibrio cholerae and vibriophage VP882 VqmA quorum-sensing receptors”", "key": {"[1]": {"tested_on": "GST-DBDPhage (Vibriophage VP882)", "assay": "EMSA", "details": "EMSA: 25 nM DNA, 18.75-600 nM protein (dimer), 6% DNA retardation gel, SYBR Green; buffer, pH and temperature not given (cited protocol); EC50 values only in …"}, "[2]": {"biological_target": "GST-DBDPhage (GST fused to the N-terminus of the VqmAPhage DNA-binding domain) (not stated | vibriophage VP882)", "assay": "SEC; gel filtration of the purified proteins, UV280 traces (S3D Fig)"}, "[3]": {"biological_target": "GST-DBDVc (GST fused to the N-terminus of the VqmAVc DNA-binding domain) (not stated | Vibrio cholerae)", "assay": "SEC; gel filtration of the purified proteins, UV280 traces (S3D Fig)"}, "VqmAVc": {"biological_target": "VqmAVc (Vibrio cholerae, UniProt A0A0F0AZW0 1-246)", "assay": "EMSA; EMSA: 25 nM DNA, 18.75-600 nM protein (dimer), 6% DNA retardation gel, SYBR Green; buffer, pH and temperature not given (cited protocol); EC50 values only in S2A Fig", "details": "protein: recombinant; chain copies: 2; blunt"}, "VqmAPhage [4]": {"biological_target": "T1, VqmAPhage (Vibriophage VP882, UniProt A2I306 1-235)", "T1 sequence": "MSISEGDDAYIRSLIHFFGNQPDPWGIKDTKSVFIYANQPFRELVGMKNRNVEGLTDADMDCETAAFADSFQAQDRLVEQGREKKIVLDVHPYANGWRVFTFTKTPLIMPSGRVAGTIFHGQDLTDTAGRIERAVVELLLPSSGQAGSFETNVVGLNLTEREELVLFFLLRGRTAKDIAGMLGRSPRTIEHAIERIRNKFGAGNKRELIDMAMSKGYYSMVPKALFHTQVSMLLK", "assay": "EMSA; half as strong as PvqmR*; EMSA: 25 nM DNA, 18.75-600 nM protein (dimer), 6% DNA retardation gel, SYBR Green; buffer, pH and temperature not given (cited protocol); EC50 values only in S2A Fig", "details": "protein: recombinant; chain copies: 2; blunt"}, "VqmAPhage [5]": {"biological_target": "T1, VqmAPhage", "assay": "EMSA; EMSA: 25 nM DNA, 18.75-600 nM protein (dimer), 6% DNA retardation gel, SYBR Green; buffer, pH and temperature not given (cited protocol); EC50 values only in S2A Fig", "details": "protein: recombinant; chain copies: 2; blunt"}}, "data": [{"molecule": "GAATACACTCCTTGTAAGTGATTGTTATAAGGAGCTTTATTCTTGATGCATATAAGAAATACCGATAGGGGGAAAAATACCCTGATAAGCAGCTGCTAAAATTGATAAATGTCAATAAGCGAAGGGGATGATGC (double strand) [Pqtip]", "values": [{"measurement": "binding signal (fold stronger than PvqmR)", "setting": "[1]", "result": 5}]}, {"molecule": "GST-DBDPhage (GST fused to the N-terminus of the VqmAPhage DNA-binding domain)", "values": [{"measurement": "stoichiometry N", "setting": "[2]", "result": 2}]}, {"molecule": "GST-DBDVc (GST fused to the N-terminus of the VqmAVc DNA-binding domain)", "values": [{"measurement": "stoichiometry N", "setting": "[3]", "result": 2}]}, {"molecule": "Pqtip* (dsDNA) DNA 1: GTGATTGTTATAAGGAGCTTTATTCTTGATGCATATAAGAAATACCGATAGGGGGATTTCCCCCCTGATAAGCAGCTGCTAAAATTGATAAATGTCAATA DNA 2: TATTGACATTTATCAATTTTAGCAGCTGCTTATCAGGGGGGAAATCCCCCTATCGGTATTTCTTATATGCATCAAGAATAAAGCTCCTTATAACAATCAC", "values": [{"measurement": "binding result", "setting": "VqmAVc", "result": "binds"}, {"measurement": "binding result", "setting": "VqmAPhage [4]", "result": "binds"}]}, {"molecule": "PvqmR* (dsDNA) DNA 1: TCCGAGTATTGCGCGAGCTGTAATGTTGACTCAAACAATTATGCATAAAGGGGGGAAAAATACCCTTTTTCATTTGTACCGCGTTCGGTAAAGTACAAAC DNA 2: GTTTGTACTTTACCGAACGCGGTACAAATGAAAAAGGGTATTTTTCCCCCCTTTATGCATAATTGTTTGAGTCAACATTACAGCTCGCGCAATACTCGGA", "values": [{"measurement": "binding signal", "setting": "VqmAPhage [5]", "result": "~2", "unit": "fold stronger than Pqtip*"}]}]}
